Results as given in IntAct's records for PubMed 16319076.

B1: Profilin-2 (Mus musculus), Q9JJV2-1 (parent)
chain: MAGWQSYVDNLMCDGCCQEAAIVGYCDAKYVWAATAGGVFQSITPVEIDMIVGKDREGFFTNGLTLGAKKCSVIRDSLYVDGDCTMDIRTKSQGGEPTYNVAVGRAGRVLVFVMGKEGVHGGGLNKKAYSMAKYLRDSGF
partner: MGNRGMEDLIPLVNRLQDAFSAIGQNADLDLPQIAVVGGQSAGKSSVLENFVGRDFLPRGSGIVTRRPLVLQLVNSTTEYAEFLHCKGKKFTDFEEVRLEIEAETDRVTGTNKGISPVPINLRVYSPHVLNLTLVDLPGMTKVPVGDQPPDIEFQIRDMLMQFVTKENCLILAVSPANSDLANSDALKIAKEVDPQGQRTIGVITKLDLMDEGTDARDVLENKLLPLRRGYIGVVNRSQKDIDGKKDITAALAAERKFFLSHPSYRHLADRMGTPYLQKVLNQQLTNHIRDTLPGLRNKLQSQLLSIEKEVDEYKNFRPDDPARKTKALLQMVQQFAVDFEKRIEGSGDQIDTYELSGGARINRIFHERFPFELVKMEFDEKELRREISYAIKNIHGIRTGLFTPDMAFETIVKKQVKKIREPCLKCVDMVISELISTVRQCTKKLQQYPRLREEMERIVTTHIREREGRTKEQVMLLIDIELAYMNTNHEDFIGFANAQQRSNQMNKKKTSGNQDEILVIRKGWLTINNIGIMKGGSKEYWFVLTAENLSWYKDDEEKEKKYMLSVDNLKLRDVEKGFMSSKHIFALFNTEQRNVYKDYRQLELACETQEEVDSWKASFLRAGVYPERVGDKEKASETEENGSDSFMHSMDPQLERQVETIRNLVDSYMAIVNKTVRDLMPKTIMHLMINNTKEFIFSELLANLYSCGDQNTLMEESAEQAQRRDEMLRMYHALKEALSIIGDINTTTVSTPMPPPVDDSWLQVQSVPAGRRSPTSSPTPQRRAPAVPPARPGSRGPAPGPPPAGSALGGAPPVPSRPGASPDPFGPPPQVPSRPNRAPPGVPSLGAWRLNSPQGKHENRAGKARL

Variants of: B1
Details: with dyn1_mouse Dnm1, P39053

Row | Variant | effect of a mutation on the interaction
1 | MAGWQSYVDNLMCDGCCQEAAIVGYCDAKYVWAATAGGVFQSITPVEIDMIVGKDREGFFTNGLTLGAKKCSVIRDSLYVDGDCTMDIRTKSQGGEPTYNVAVGRAGRVLVFVMGKEGVHGGGLNKKAYSMAKYLRDDGF | decreasing interaction
